Here are results for one molecule from US20240002501A1.

For test [1], the target named is L1-CAM-Fc (UniProt P32004). Nature of the test: SPR (Biacore T100), L1-CAM-Fc immobilised on CM5 chip. (In SPR one partner is held on a chip, and binding of the other changes the refractive index at the surface.)
Test [2] deals with L1-CAM-Fc (UniProt P32004). Described as above. The source holds these as a separate data set.
The target of test [3] is L1-CAM-His. As to the kind of experiment: SPR (Biacore T100), L1-CAM-His immobilised on CM5 chip.
Sequence of L1-CAM-His (P32004 20-1120): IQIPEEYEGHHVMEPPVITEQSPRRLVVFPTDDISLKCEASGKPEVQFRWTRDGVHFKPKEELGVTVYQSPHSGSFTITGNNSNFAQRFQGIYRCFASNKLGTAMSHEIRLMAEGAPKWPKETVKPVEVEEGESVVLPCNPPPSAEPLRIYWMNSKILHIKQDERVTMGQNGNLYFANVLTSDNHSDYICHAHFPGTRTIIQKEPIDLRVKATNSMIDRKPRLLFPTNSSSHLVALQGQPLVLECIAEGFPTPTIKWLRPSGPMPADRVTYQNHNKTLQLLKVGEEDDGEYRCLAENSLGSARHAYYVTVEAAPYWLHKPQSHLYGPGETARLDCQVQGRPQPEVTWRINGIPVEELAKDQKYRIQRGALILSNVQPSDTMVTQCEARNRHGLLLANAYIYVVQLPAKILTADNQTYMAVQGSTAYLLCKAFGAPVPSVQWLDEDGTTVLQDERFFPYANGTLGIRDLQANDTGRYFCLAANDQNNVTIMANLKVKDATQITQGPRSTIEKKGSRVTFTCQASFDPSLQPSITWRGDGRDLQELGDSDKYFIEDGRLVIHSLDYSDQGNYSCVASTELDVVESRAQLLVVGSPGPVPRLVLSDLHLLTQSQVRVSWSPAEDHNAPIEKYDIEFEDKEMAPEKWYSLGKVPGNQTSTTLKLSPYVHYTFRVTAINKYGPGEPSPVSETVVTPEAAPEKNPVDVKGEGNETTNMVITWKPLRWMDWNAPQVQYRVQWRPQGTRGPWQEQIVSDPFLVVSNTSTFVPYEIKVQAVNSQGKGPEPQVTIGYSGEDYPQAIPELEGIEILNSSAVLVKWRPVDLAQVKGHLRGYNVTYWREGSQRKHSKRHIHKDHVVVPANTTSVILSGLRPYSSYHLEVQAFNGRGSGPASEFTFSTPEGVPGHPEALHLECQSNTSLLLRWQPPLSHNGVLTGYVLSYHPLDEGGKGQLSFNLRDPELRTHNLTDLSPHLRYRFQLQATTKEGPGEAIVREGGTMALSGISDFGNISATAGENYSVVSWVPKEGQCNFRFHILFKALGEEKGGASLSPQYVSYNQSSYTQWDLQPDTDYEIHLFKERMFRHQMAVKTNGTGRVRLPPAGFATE

What is called Kd is the equilibrium constant for the complex coming apart. Low readings indicate a tighter complex, high ones a looser complex.

Like-named read-outs stand apart in the source and are kept apart here.

Sequence of L1-CAM-Fc (P32004 20-1120 limits assumed): as the sequence (P32004 20-1120) above

B1: chCE7 (antibody, from another filing, V domains shown)
VH: QVQLQQPGAELVKPGASVKLSCKASGYTFTGYWMHWVKQRPGHGLEWIGEINPSNGRTNYNERFKSKATLTVDKSSTTAFMQLSGLTSEDSAVYFCARDYYGTSYNFDYWGQGTTLTVSS
VL: DIQMTQSSSSFSVSLGDRVTITCKANEDINNRLAWYQQTPGNSPRLLISGATNLVTGVPSRFSGSGSGKDYTLTITSLQAEDFATYYCQQYWSTPFTFGSGTELEIK
With B1, the Kd in test [1] was 0.618 nM; in test [2], 1.42 nM; in test [3], 1.3 nM.
